Results published in patent publication EP3727588B1 (UNIVERSITA' DEGLI STUDI DI MILANO, dated 2019).

How the values were obtained:
[1] = biological target: T1, α-adaptin subunit of AP2 (rat) (rat, UniProt P58197); assay: co-IP with anti-ADAM10; rat primary hippocampal neurons, 1 µM, 30 min; competitor ADAM10 (Fig. 1D)
T1 construct: Detected by Western blot as a read-out of the whole AP2 complex

[2] = biological target: AP2 clathrin adaptor complex (in COS7 cells); assay: cell-based or functional assay
[3] = biological target: T1, α-adaptin subunit of AP2 (rat); assay: co-IP with anti-ADAM10, α-adaptin blot; rat acute hippocampal slices, 10 µM, 30 min; competitor ADAM10 (Fig. 1B)

T1 sequence (P58197 whole entry): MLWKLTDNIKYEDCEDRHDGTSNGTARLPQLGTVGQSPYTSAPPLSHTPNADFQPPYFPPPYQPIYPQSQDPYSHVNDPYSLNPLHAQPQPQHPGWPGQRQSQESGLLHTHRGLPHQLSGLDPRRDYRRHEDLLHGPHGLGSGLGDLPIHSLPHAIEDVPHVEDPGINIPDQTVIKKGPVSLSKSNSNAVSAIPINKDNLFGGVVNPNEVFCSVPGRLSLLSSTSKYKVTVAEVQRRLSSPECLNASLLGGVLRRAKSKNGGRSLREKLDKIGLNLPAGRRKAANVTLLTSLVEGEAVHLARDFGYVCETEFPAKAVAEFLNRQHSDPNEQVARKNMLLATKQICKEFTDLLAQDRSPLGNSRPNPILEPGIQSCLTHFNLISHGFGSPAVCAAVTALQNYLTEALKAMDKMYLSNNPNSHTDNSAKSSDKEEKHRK

B1: PEP2 (peptide)
peptide: YGRKKRRQRRRGGSGLPPRQRPRL
- PEP/inPEP ratio of α-adaptin co-immunoprecipitated with ADAM10 (OD) [1]: 33.9%
- internalization index of TacADAM10-RAR (fluorescence-based antibody uptake, COS7 cells, 1 µM, 30 min) [2]: -10.9%
- PEP/inPEP ratio of α-adaptin co-immunoprecipitated with ADAM10 (OD) [3]: 41.6%

B2: inPEP3 (peptide)
peptide: YGRKKRRQRRRGGSGQPPEQEPRG
- internalization index of TacADAM10-RAR (fluorescence-based antibody uptake, COS7 cells, 1 µM, 30 min) [2]: 1.3%

B3: PEP3 (peptide)
peptide: YGRKKRRQRRRGGSGQPPRQRPRG
- PEP/inPEP ratio of α-adaptin co-immunoprecipitated with ADAM10 (OD) [1]: 10.8%
- internalization index of TacADAM10-RAR (fluorescence-based antibody uptake, COS7 cells, 1 µM, 30 min) [2]: -12.8%
- PEP/inPEP ratio of α-adaptin co-immunoprecipitated with ADAM10 (OD) [3]: 37.4%

B4: inPEP2 (peptide)
peptide: YGRKKRRQRRRGGSGLPPEQEPRL
- internalization index of TacADAM10-RAR (fluorescence-based antibody uptake, COS7 cells, 1 µM, 30 min) [2]: -1.84%
